According to the supplement of paper PMC10126150:
± gives the standard deviation of the averaged measurements.
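Also: ATP exposure 15 min at 22 °C before imaging.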

These sequences were tested on ATP (assay: switch fluorescence ratio, 500 uM ATP over buffer (Cy3 cluster intensity, sum of 5 cycles each) (fold (ratio)); higher = stronger signal-on switching upon ATP binding; sequences stand for … in TCGTCGGCAGCGTCAGATGTGTATAAGAGACAGTTTTTTTTTTTTTTTTTTTTTTTTT…TC). Settings: aptamer strand: ATP DNA aptamer (quencher-CACCTGGGGGAGTATTGCGGAGGAAGG + anchor), 100 nM annealed; ATP concentration: 500 uM.
Method in brief: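 The quencher-labelled ATP aptamer, at 100 nM, was annealed to Cy3-labelled switching-strand clusters on a modified Illumina MiSeq flow-cell. The clusters were imaged in selection buffer, then after 15 min with 500 uM ATP at 22 °C, and this buffer/ATP cycle ran five times with NaOH stripping and re-annealing between runs. Per-cluster fluorescence ratios, summed target-cycle over summed buffer-cycle Cy3 intensity, were averaged per switch-domain sequence. Clusters outside 100-1000 RFU were excluded.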
Work on GCAAAAGAGA yielded a switch fluorescence ratio of 0.994 ± 0.032. ATTTTTTGTA showed a switch fluorescence ratio of 0.984 ± 0.026. Work on GGGCCTGAAA yielded a switch fluorescence ratio of 1.08 ± 0.093. CAATAGTCAG showed a switch fluorescence ratio of 1.04 ± 0.015. With CAGAAGGTTT the switch fluorescence ratio was 1 ± 0.022. Sequence GGTGCCGTTT has a switch fluorescence ratio of 0.998 ± 0.026. Sequence CTTAACGGCG has a switch fluorescence ratio of 0.968 ± 0.044. With CAAACTAGC the switch fluorescence ratio was 0.99 ± 0.003. With ATCATTTAAT the switch fluorescence ratio was 1.009 ± 0.0054. Work on GGTGGAGCTA yielded a switch fluorescence ratio of 1.03 ± 0.015. ATATGGATGA was tested, and the switch fluorescence ratio was 0.96 ± 0.03. Sequence ATATAGATTG has a switch fluorescence ratio of 1.03 ± 0.038. GTTTTTGTGG showed a switch fluorescence ratio of 0.992 ± 0.01. CCATGGGTGG gave a switch fluorescence ratio of 1.01 ± 0.011. In the case of TTAAGGGTGG, the switch fluorescence ratio is reported as 0.991 ± 0.021. With ACAGGGGGTG the switch fluorescence ratio was 1.07 ± 0.035. In the case of TGGGGGGGGC, the switch fluorescence ratio is reported as 1.01 ± 0.034. In the case of AATAAACGGG, the switch fluorescence ratio is reported as 1.03 ± 0.015. TTCCAATAGG gave a switch fluorescence ratio of 1.13 ± 0.21. GGATGGGGCG gave a switch fluorescence ratio of 0.995 ± 0.027. Sequence GGGGACCTTA has a switch fluorescence ratio of 0.993 ± 0.028. TATGTTTGGG gave a switch fluorescence ratio of 0.986 ± 0.034. With AGAGTGTATG the switch fluorescence ratio was 1.006 ± 0.0086. In the case of TCCAACTGCT, the switch fluorescence ratio is reported as 1.037 ± 0.0035. CTGGGGAGGA was tested, and the switch fluorescence ratio was 0.997 ± 0.028. TTCACTATTT gave a switch fluorescence ratio of 1.02 ± 0.028. Sequence TCGATGCAGC has a switch fluorescence ratio of 1.45 ± 0.31. Sequence TTCTGTGTGG has a switch fluorescence ratio of 0.981 ± 0.011. For CCGTCATCTG, the switch fluorescence ratio was 1.04 ± 0.029. In the case of CTCGCTAGGA, the switch fluorescence ratio is reported as 1.05 ± 0.019. With ATAGTGATAC the switch fluorescence ratio was 3.28 ± 0.057. For TTTAATTCGC, the switch fluorescence ratio was 1.1 ± 0.056. For AGCGGGATGC, the switch fluorescence ratio was 1.03 ± 0.028. GATATGGCAC gave a switch fluorescence ratio of 1.05 ± 0.042. TATCGGTTAT was tested, and the switch fluorescence ratio was 0.984 ± 0.013. With TTAGGAACAT the switch fluorescence ratio was 1.2 ± 0.23. Sequence TATGGCATCT has a switch fluorescence ratio of 1 ± 0.051. CAGTTAGAAA was tested, and the switch fluorescence ratio was 0.9952 ± 0.0075. Work on AGCCGATATT yielded a switch fluorescence ratio of 0.967 ± 0.015. With AATAAAAAGT the switch fluorescence ratio was 0.982 ± 0.023. Sequence TGGATGTTTA has a switch fluorescence ratio of 1.03 ± 0.024. TGGACTTAGG was tested, and the switch fluorescence ratio was 0.987 ± 0.03. In the case of GTTTGGCGTA, the switch fluorescence ratio is reported as 0.967 ± 0.015. TGGATACACT was tested, and the switch fluorescence ratio was 1.04 ± 0.032. In the case of GAAGGAAGAG, the switch fluorescence ratio is reported as 1.03 ± 0.025. ATGTTGATAT was tested, and the switch fluorescence ratio was 1.01 ± 0.045. CAAAGGATAC was tested, and the switch fluorescence ratio was 1.2 ± 0.013. CGGATATGGT gave a switch fluorescence ratio of 1 ± 0.013. With AGGGGTTAAG the switch fluorescence ratio was 0.954 ± 0.024. AATACGACGG showed a switch fluorescence ratio of 1.14 ± 0.014. GCATTGTGTG showed a switch fluorescence ratio of 0.991 ± 0.037. Work on TTGTATACCT yielded a switch fluorescence ratio of 1.17 ± 0.02. TGAACTGCTG showed a switch fluorescence ratio of 1.017 ± 0.0049. With AAGATTCTCG the switch fluorescence ratio was 1.004 ± 0.0095. Work on GTGGGGTCGA yielded a switch fluorescence ratio of 1.01 ± 0.04. In the case of TTATGTGTCG, the switch fluorescence ratio is reported as 0.983 ± 0.033. Sequence GATTAGGTGA has a switch fluorescence ratio of 1.06 ± 0.014. GTAGGGGTTC was tested, and the switch fluorescence ratio was 0.982 ± 0.042. For GACAGGGGGA, the switch fluorescence ratio was 1.035 ± 0.0072. In the case of ATGATTGGCA, the switch fluorescence ratio is reported as 0.99 ± 0.026. For CATGTGCGAG, the switch fluorescence ratio was 1.01 ± 0.021. For GGGCCGTTTG, the switch fluorescence ratio was 1.002 ± 0.0047. Sequence CGGAGTTTTG has a switch fluorescence ratio of 1.01 ± 0.027. Sequence AAATCAACCC has a switch fluorescence ratio of 0.9885 ± 0.0083. In the case of GCCAGGGATT, the switch fluorescence ratio is reported as 1.01 ± 0.029. GGGGCTATCG gave a switch fluorescence ratio of 1.16 ± 0.24. ATGGAGGTCT was tested, and the switch fluorescence ratio was 1.01 ± 0.055. With CTTTATATGG the switch fluorescence ratio was 0.96 ± 0.046. For GAAATGTAGG, the switch fluorescence ratio was 0.995 ± 0.034. Sequence TTCGTTTTTT has a switch fluorescence ratio of 0.985 ± 0.047. CTCCGGTTTG gave a switch fluorescence ratio of 2.03 ± 1.4. With ACAGACAGGC the switch fluorescence ratio was 1.05 ± 0.062. For GTGAAAGGGT, the switch fluorescence ratio was 1.02 ± 0.015. In the case of GGGGTGGGGA, the switch fluorescence ratio is reported as 1 ± 0.036. GTCTAAACTT showed a switch fluorescence ratio of 1.01 ± 0.013. GATTTTAGAG gave a switch fluorescence ratio of 0.9809 ± 0.003. Sequence ATGAGGAGGG has a switch fluorescence ratio of 1.02 ± 0.023. GGGAGGGGCA gave a switch fluorescence ratio of 0.971 ± 0.012. Work on CAATCTGCGC yielded a switch fluorescence ratio of 1.07 ± 0.043. For ATGCGCAGAT, the switch fluorescence ratio was 1.046 ± 0.0063. For TGGGGTTATA, the switch fluorescence ratio was 1.02 ± 0.023. Sequence AAAAGTGGCA has a switch fluorescence ratio of 1.07 ± 0.065. GGGGCCGGGT was tested, and the switch fluorescence ratio was 0.998 ± 0.02. AAGTTGGTCT gave a switch fluorescence ratio of 1.02 ± 0.018. Sequence ACGTTATGTT has a switch fluorescence ratio of 1.1 ± 0.035. For TGAGGAAGAC, the switch fluorescence ratio was 1.09 ± 0.014. In the case of TCGATAGCGA, the switch fluorescence ratio is reported as 1.19 ± 0.028. In the case of TCAGGGCGAT, the switch fluorescence ratio is reported as 1.03 ± 0.026. Sequence ATTCATATGT has a switch fluorescence ratio of 0.999 ± 0.018. ATTATTACGT gave a switch fluorescence ratio of 0.99 ± 0.038. In the case of TTAGAAGTAT, the switch fluorescence ratio is reported as 1.03 ± 0.046. With TGAGGTGAAA the switch fluorescence ratio was 0.976 ± 0.03. TTTGGCGCAC was tested, and the switch fluorescence ratio was 1.06 ± 0.015. CCAAAGTACG showed a switch fluorescence ratio of 1.25 ± 0.018. In the case of GCTCCAATTT, the switch fluorescence ratio is reported as 1.07 ± 0.034. GTGAAAGGAG was tested, and the switch fluorescence ratio was 0.997 ± 0.039.
